The record followed here is US6602700B1, “Phenolic acid esterases, coding sequences and methods” (University of Georgia Research Foundation, Inc., priority 1998, dated 2003).

Series [1] is described as follows: Feruloyl esterase activity of C. thermocellum enzymes, HPLC assay, FAXX as substrate. The settings on record: E. coli cell free extracts. In kind it is biochemical. On the procedure:
(§1) Unless otherwise noted, all C. thermocellum enzyme assays were performed at 60° C. in 50 mM Na-citrate buffer, pH 6.0. One unit of enzyme activity was defined as the amount of enzyme that released 1 μmol of product min-1, and specific activity is given in units per milligram of protein. Feruloyl esterase activity was measured using a modified version of the assay described by Borneman et al. [Borneman etal. (1990) Anal. Biochem. 190:129-133]. The appropriately diluted protein sample (25 l) was added to 400 μl of buffer plus 8 mM of substrate. Samples were incubated at 60° C. for 5 min. and the reaction was stopped by adding 25 μl of 20% formic acid. Release of ferulic acid was measured via HPLC using a mobile phase of 10 mM Na-formate pH 3 and 30% (vol/vol) methanol. For routine assays, FAXX and FAX3 purified from wheat bran were used as substrates [Borneman et al. (1990) supra]. Ethyl-ferulate and ethyl-p-coumarate esters were a gift from D. E. Akin (USDA, Athens, Ga.). The hydrolysis of these (10 mM) were determined similarly to that of FAXX, but the HPLC analyses were performed with 50% methanol. HPLC runs were with a Hewlett Packard 1100 Series instrument equipped with an autosampler and diode array detector. Ferulic acid and p-coumaric acid were used as standards. To determine the amount of feruloyl and p-coumaroyl groups released from plant cell walls, wheat bran and Coastal Bermuda grass were ground in a Wiley mill to pass through a 250 μm screen. Plant samples of ten milligram were incubated for one hour in 400 μl of 50 mM Na-citrate buffer pH, 6.0 plus 25 μl of enzyme. After the addition of 25 μl of 20% formic acid to stop the reaction, the samples were centrifuged at 16,000×g in a microfuge and then assayed for FA and pCA by HPLC.

The nature of series [2]: C. thermocellum enzyme stability experiments (heat incubation, residual activity). In kind it is physicochemical. On the procedure:
Purified enzyme at a concentration of 13 μg/nMl was placed in a water bath at the appropriate temperature and incubated at intervals of one hour. Enzyme aliquots (25 μl) were removed and assays were performed in triplicate using FAX3 as a substrate as described above. FAE/CBD was tested at temperatures of 500, 600, and 70° C. while FAE was tested at 70°, 80° and 90° C.

A short description of series [3]: Routine feruloyl esterase assay of purified recombinant XynZ polypeptides (purification tables). The class given is biochemical. The settings on record: purified preparation after heat treatment and TSK 3000SW gel filtration. On the procedure:
as §1, with “To determine the amount of feruloyl and p-coumaroyl groups released from plant cell walls, wheat bran and Coastal Bermuda grass were ground in a Wiley mill to pass through a 250 μm screen. Plant samples of ten milligram were incubated for one hour in 400 μl of 50 mM Na-citrate buffer pH, 6.0 plus 25 μl of enzyme. After the addition of 25 μl of 20% formic acid to stop the reaction, the samples were centrifuged at 16,000×g in a microfuge and then assayed for FA and pCA by HPLC.” left out
In general terms: In gel filtration, larger molecules generally elute earlier.

Series [4] in a line: Storage stability of purified XynZ-derived FAE at 4° C. As to conditions: 4° C. in elution buffer (50 mM Tris pH 7.5, 5% glycerol). The class given is physicochemical. On the procedure: Alternatively, the 100,000×g supernatant after the heat treatment was concentrated to a volume of 2 ml with a Centricon 10 concentrator (Amicon, Millipore, Bedford, Mass.) and then applied to a TSK3000SW column (Tosohaas) which was run with 50 mM Tris pH 7.5 and 5% glycerol as solvent.

A short description of series [5]: Cellulose binding of XynZ constructs. The settings on record: purified from recombinant E. coli.
Series [6] can be described thus: Feruloyl esterase activity of C. thermocellum enzymes, HPLC assay, FAX3 as substrate. The class given is biochemical. As to conditions: pH 6.0, 60° C. On the procedure: as §1, with “To determine the amount of feruloyl and p-coumaroyl groups released from plant cell walls, wheat bran and Coastal Bermuda grass were ground in a Wiley mill to pass through a 250 μm screen. Plant samples of ten milligram were incubated for one hour in 400 μl of 50 mM Na-citrate buffer pH, 6.0 plus 25 μl of enzyme. After the addition of 25 μl of 20% formic acid to stop the reaction, the samples were centrifuged at 16,000×g in a microfuge and then assayed for FA and pCA by HPLC.” left out

B1: FAE287: XynZ amino acids 20-307; lacks the CBD but contains the proline rich linker (protein, listed as Clostridium thermocellum)
chain: LVTISSTSAASLPTMPPSGYDQVRNGVPRGQVVNISYFSTATNSTRPARVYLPPGYSKDKKYSVLYLLHGIGGSENDWFEGGGRANVIADNLIAEGKIKPLIIVTPNTNAAGPGIADGYENFTKDLLNSLIPYIESNYSVYTDREHRAIAGLSMGGGQSFNIGLTNLDKFAYIGPISAAPNTYPNERLFPDGGKAAREKLKLLFIACGTNDSLIGFGQRVHEYCVANNINHVYWLIQGGGHDFNVWKPGLWNFLQMADEAGLTRDGNTPVPTPSPKPANTRIEAEDYD
Turning to B1, the “Feruloyl esterase activity (hydrolysis of FAXX) of construct expressed in E. coli” value (shortened to “Feruloyl esterase activity … in E. coli”) in series [1] is on record as “exhibited feruloyl esterase activity”.

B2: FAE227: XynZ amino acids 20-247; expressed but inactive truncation (protein, listed as Clostridium thermocellum)
chain: LVTISSTSAASLPTMPPSGYDQVRNGVPRGQVVNISYFSTATNSTRPARVYLPPGYSKDKKYSVLYLLHGIGGSENDWFEGGGRANVIADNLIAEGKIKPLIIVTPNTNAAGPGIADGYENFTKDLLNSLIPYIESNYSVYTDREHRAIAGLSMGGGQSFNIGLTNLDKFAYIGPISAAPNTYPNERLFPDGGKAAREKLKLLFIACGTNDSLIGFGQRVHEYCVANN
With B2, the “Feruloyl esterase activity … in E. coli” value in series [1] is “inactive”.

B3: FAE: C. thermocellum XynZ amino acids 20-286 expressed in E. coli; feruloyl esterase domain without linker or CBD (protein, listed as Clostridium thermocellum)
chain: LVTISSTSAASLPTMPPSGYDQVRNGVPRGQVVNISYFSTATNSTRPARVYLPPGYSKDKKYSVLYLLHGIGGSENDWFEGGGRANVIADNLIAEGKIKPLIIVTPNTNAAGPGIADGYENFTKDLLNSLIPYIESNYSVYTDREHRAIAGLSMGGGQSFNIGLTNLDKFAYIGPISAAPNTYPNERLFPDGGKAAREKLKLLFIACGTNDSLIGFGQRVHEYCVANNINHVYWLIQGGGHDFNVWKPGLWNFLQMADEAGLTRDGN
Regarding B3, the “Relative activity after heat incubation” value is recorded as “around 50%” in series [2] (80° C., after three hours of incubation) and “most of the relative activity was destroyed” in series [2] (90° C., after 1 hour of incubation). Further, the Thermal stability result in series [2] (temperatures up to 70° C. for 6 hours) is given as “stable”. Besides, the “Specific Activity” value in series [3] is recorded as 26.6 U/mg. Besides, in series [4], the Storage stability entry was “stable for at least a month”. In series [5], the “Removal of feruloyl esterase activity by Avicel and acid swollen cellulose adsorption (cellulose binding)” value is reported as “not”. Besides, the entries for the “Feruloyl esterase activity … in E. coli” value in series [1] and in series [1] (listed as XynZ UD) were “exhibited feruloyl esterase activity” and “high levels of feruloyl esterase activity”, respectively. In series [6], the Km (as a rule, the concentration of substrate that gives half-maximal velocity) turned out to be 10.5 mM. Further, the Vmax in series [6] was 28.2 μmol ferulic acid released min-1 mg-1.
